Test [1] concerns the target T1, human CTLA-4 on the cell surface (transfected CHO and A431 cells; CD152-expressing cells of human tonsil) (human, UniProt P16410 36-223).
T1 construct: whole, on cells; also called CHO-hCTLA-4; CHO::hCTLA-4
T1 sequence (looked up): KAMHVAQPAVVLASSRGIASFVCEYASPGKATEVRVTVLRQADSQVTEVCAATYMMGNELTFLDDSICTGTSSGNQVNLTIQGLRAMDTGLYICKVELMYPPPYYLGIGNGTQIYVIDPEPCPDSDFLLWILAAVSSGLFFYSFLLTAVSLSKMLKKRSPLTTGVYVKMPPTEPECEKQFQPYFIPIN
Briefly: indirect immunoperoxidase staining of cryosections; column Negative Control Antibody [Isotype-matched hNGALwt_58].

In test [2] the target is T2, mCTLA-4-Fc (R&D Systems) (mouse, UniProt P09793 36-162). Briefly: SPR as in Example 9.
For test [3], the target named is T3, human CTLA-4-Fc (Chimerigen) (human, UniProt P16410 36-161; P01857 99-330 = IgG part, limits assumed).
T3 construct: extracellular domain;domain: Fc portion; Bought protein; also called hCTLA-4-Fc; huCTLA-4-Ig
The experiment in a line: SPR as in Example 9.
Target sequence in this assay (P16410 other isoform, or with tags, fused parts or gaps mutant limits assumed): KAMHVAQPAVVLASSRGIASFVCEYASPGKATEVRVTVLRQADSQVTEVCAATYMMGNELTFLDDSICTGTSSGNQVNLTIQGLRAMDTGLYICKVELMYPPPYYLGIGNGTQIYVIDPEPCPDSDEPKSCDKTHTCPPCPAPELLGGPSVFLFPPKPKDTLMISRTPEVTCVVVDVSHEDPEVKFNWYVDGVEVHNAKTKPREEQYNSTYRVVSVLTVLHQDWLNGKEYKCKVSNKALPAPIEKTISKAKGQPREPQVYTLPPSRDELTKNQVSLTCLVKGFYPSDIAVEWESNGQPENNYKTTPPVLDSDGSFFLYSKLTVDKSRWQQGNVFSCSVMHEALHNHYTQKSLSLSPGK

Test [4] deals with T3, human CTLA-4-Fc (Chimerigen). Briefly: SPR-Affinity towards hCTLA-4-Fc.
Target sequence in this assay (P16410 other isoform, or with tags, fused parts or gaps mutant limits assumed): as above
For test [5] the target is unchanged. Briefly: competition FACS: 2.5 nM human CTLA-4 Fc pre-incubated with the antagonist, then staining of Raji cells; % inhibition of CTLA-4 Fc binding; blocked ligands B7.1 and B7.2.
Test [6] has the same target. The experiment in a line: ELISA towards hCTLA-4-Fc. For orientation: ELISA stands for enzyme-linked immunosorbent assay.
Target sequence in this assay (P16410 other isoform, or with tags, fused parts or gaps mutant limits assumed): as above
In test [7] the target is T2, mCTLA-4-Fc (R&D Systems). Briefly: SPR; KD listed beside Tm. A general note: SPR reads the build-up and loss of mass on a sensor chip optically.
Test [8] addresses T3, human CTLA-4-Fc (Chimerigen). Briefly: SPR; KD listed beside Tm.
Target sequence in this assay (P16410 other isoform, or with tags, fused parts or gaps mutant limits assumed): as above
For test [9] the target is unchanged. The experiment in a line: SPR-Affinity of the monomer towards hCTLA-4-Fc.
Target sequence in this assay (P16410 other isoform, or with tags, fused parts or gaps mutant limits assumed): as above
For test [10] the target is unchanged. The experiment in a line: FACS competition: inhibition of 2.5 nM hCTLA-4 Fc binding to Raji cells (B7.1, B7.2).
The target of test [11] is T4, mouse CTLA-4 Fc (Chimerigen) (mouse, UniProt P09793 36-161).
T4 construct: also called muCTLA-4-Ig; muCTLA-4-Fc; not shown: Fc part not described; detected with anti-mouse IgG-phycoerythrin
The experiment in a line: FACS competition: inhibition of 2.5 nM mCTLA-4 Fc binding to Raji cells (B7.1, B7.2).

The target in test [12] is T3, human CTLA-4-Fc (Chimerigen). Briefly: competition FACS: HuCTLA4-Ig 10 ug/ml pre-incubated with the antagonist, then staining of P815 cells transfected with human B7.2; blocked ligand B7.2.
Test [13] has as its target T2, mCTLA-4-Fc (R&D Systems). The experiment in a line: SPR, Fc fusion captured via anti-human IgG Fc.
In test [14] the target is T3, human CTLA-4-Fc (Chimerigen). The experiment in a line: SPR, Fc fusion captured via anti-human IgG Fc.
Target sequence in this assay (P16410 other isoform, or with tags, fused parts or gaps mutant limits assumed): as above

T2 sequence (P09793 whole entry): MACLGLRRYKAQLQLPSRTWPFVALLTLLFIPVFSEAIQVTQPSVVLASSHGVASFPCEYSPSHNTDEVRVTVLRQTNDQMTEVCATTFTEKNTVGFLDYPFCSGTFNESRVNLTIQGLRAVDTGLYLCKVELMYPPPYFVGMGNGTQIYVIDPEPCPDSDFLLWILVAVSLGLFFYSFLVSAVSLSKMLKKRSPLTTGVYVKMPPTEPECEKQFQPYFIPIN

B1: control lipocalin hNGAL wt58 (other)
chain: QDSTSDLIPAPPLSKVPLQQNFQDNQFHGKWYVVGLAGNAILREDKDPQKMYATIYELKEDKSYNVTSVLFRKKKCDYWIRTFVPGSQPGEFTLGNIKSYPGLTSYLVRVVSTNYNQHAMVFFKKVSQNREYFKITIYGRTKELASELKENFIRFSKSLGLPENHIVFPVPIDQCIDG
notes: also called hNGAL-58; hNGAL58
As to B1, the binding result in [1] is recorded as “no binding (tested: 40 µg/mL)”.

B2: hNGAL mutein S140.4-O10 (designed binder)
chain: QDSTSDLIPAPPLSKVPLQQNFQDNQFHGKWYVVGLAGNRILRDDQHPMNMYATIYELKEDKSYNVTSVISSHKKCEYTIATFVPGSQPGEFTLGNIKSYGDKTSYLVRVVSTDYNQYAVVFFKLAEDNAEFFAITIYGRTKELASELKENFIRFSKSLGLPENHIVFPVPIDQCIDG
notes: also called Onc I-002
As usually defined, the Kd is a measure of binding affinity in units of concentration. As a reminder, the koff is the first-order rate constant of dissociation. One may read the kon as the second-order rate constant of association. In the case of B2, the Kd in test [2] was determined as 40.8 nM; in test [3], 8.3 nM; in test [4], 3.7 nM; in [7], 40.8 nM; in [8] it was 8.3 nM. Also, the koff turned out to be 0.00049 s⁻¹ in test [2] and 0.000221 s⁻¹ in test [3]. The values for the on-rate constant (kon) in test [2] and in [3] were 11900 M⁻¹ s⁻¹ and 15300 M⁻¹ s⁻¹, respectively. Besides, the “IC50 (read off the curve)” value in test [5] was approximately 2 nM. This molecule registered an ELISA affinities in test [6] of 3.8 nM.

B3: hNGAL mutein S140.4-O10 without T7 tag (designed binder)
chain: QDSTSDLIPAPPLSKVPLQQNFQDNQFHGKWYVVGLAGNRILRDDQHPMNMYATIYELKEDKSYNVTSVISSHKKCEYTIATFVPGSQPGEFTLGNIKSYGDKTSYLVRVVSTDYNQYAVVFFKLAEDNAEFFAITIYGRTKELASELKENFIRFSKSLGLPENHIVFPVPIDQCIDG
notes: also called S140.4-O10 (-T7 tag); S140.4-O10(-T7)
Broadly, the IC50 is the concentration at which inhibition is half-maximal. High values mean weaker potency, low ones greater potency. For the molecule B3, the equilibrium dissociation constant (Kd) in [2] came out at 15.3 nM; in test [3], 3.9 nM; in [9], 3 nM. Besides, the results for the koff in [2] and in test [3] were 0.000416 s⁻¹ and 0.000108 s⁻¹, respectively. The kon in test [2] is 27200 M⁻¹ s⁻¹; in test [3], 27700 M⁻¹ s⁻¹. Moreover, the IC50 in test [10] worked out at 2.5 nM; in [11], 15.5 nM.

B4: hNGAL mutein S94.7-Q13 (designed binder)
chain: QDSTSDLIPAPPLSKVPLQQNFQDNQFHGKWYVVGLAGNRILRDDQHPMNMYATIYELKEDKSYNVTSVIFPHKKCEYTIATFVPGSQPGEFTLGNIKSYGDKTSYLVRVVSTNYNQHATVFFKLAEDNAEFFAITIYGRTKELASELKENFIRFSKSLGLPENHIVFPVPIDQCIDGSAWSHPQF
notes: also called CTLA-4-Q13
In the case of B4, the “IC50 (read off the curve)” value in [12] was approximately 5 µg/mL. In test [13], this molecule registered a dissociation constant Kd of 39.5 nM, an off-rate constant (koff) of 0.00017 s⁻¹ and a kon of 4300 M⁻¹ s⁻¹. In [14], this molecule came in with a Kd of 11.8 nM, a koff of 7.1e-05 s⁻¹ and a kon of 6000 M⁻¹ s⁻¹.

Values taken from patent US20090042785A1 (Pieris, published 2009).
